{"source": "paper PMC5686756", "about": "“IKKγ-Mimetic Peptides Block the Resistance to Apoptosis Associated with Kaposi's Sarcoma-Associated Herpesvirus Infection” (Journal of Virology, 2017)", "key": {"GB1–ks-vFLIP": {"target": "T1, GB1–ks-vFLIP (Human herpesvirus 8 type P, UniProt F5HEZ4)", "T1 construct": "ks-vFLIP (residues 1 to 188) was PCR cloned into the EcoRI and XhoI sites of GB1-pBR22b; 6His (C); made in house; host or cells: E. coli BL21(DE3)", "T1 sequence (F5HEZ4 whole entry, the tested form may be a part)": "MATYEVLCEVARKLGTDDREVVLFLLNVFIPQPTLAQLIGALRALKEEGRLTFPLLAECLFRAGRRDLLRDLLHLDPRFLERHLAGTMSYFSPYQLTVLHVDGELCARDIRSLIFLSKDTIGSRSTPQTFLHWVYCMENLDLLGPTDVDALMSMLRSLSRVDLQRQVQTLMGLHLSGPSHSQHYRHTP", "test": "biochemical", "format": "binding, Kaposi's sarcoma-associated herpesvirus", "method": "We next sought to assess the affinity of spIKKγ for vFLIP using isothermal calorimetry (ITC).\nIsothermal calorimetry (ITC) experiments were performed using a Microcal VP-ITC micocalorimeter (MicroCal). For all binding reactions, syringe concentrations varied between ∼85 and 100 μM for IKKγ(150–272) and cell concentrations between ∼8 and 10 μM for GB1-vFLIP. Titrations consisted of an initial 2-μl injection, followed by 20 10-μl injections with stirring at 300 rpm. In competition assays, GB1–ks-vFLIP was first incubated with 20 μM spIKKγ and DMSO to 4% prior to loading into the cell and titration with IKKγ(150–272). All ITC binding experiments were performed in deionized water at 25°C owing to the buffer constraints of spIKKγ, GB1–ks-vFLIP, and IKKγ(150–272), where GB1–ks-vFLIP and IKKγ(150–272) were buffer matched by overnight dialysis, followed by the addition of 4% DMSO to each. […] Following collection, all data were analyzed using ORIGIN 70 software and fitted to a one-site binding model with each experiment performed at least in triplicate."}, "IKKγ": {"system": "IKKγ", "test": "Thermofluor assay, thermal denaturation of IKKγ alone", "format": "physicochemical", "conditions": "various concentrations, SYPRO orange", "text": "FIG 2 vFLIP-IKKγ interaction and peptide thermofluor analysis. (A) (Left) Cartoon depiction of the ks-vFLIP–IKKγ heterotetramic complex (PDB code 3CL3). The IKKγ and ks-vFLIP monomers are shown in gray and wheat, respectively. (Right) The ks-vFLIP-IKKγ dimer interface highlighting cleft 1 (white) and cleft 2 (cyan). Residues essential for the formation of the cleft 1 interactions (H235, F238, D242, and K246) are colored magenta, and those that interact with cleft 2 (Q236 and E240) are colored blue. (B) IKKγ ks-vFLIP minimal interacting motif (residues 230 to 248) together with those forming the 30- and 21-mer peptides (pink and violet, respectively) used in the thermofluor studies. (C) Thermal denaturation profiles for ks-vFLIP (left) and IKKγ (right) at various concentrations. […] (D) Thermal denaturation of ks-vFLIP in the presence of various concentrations of IKKγ (left) and the 21-mer (pink) and 30-mer (violet) (right) peptides.\nEach experiment was repeated at least 3 times. All peptides were purchased from Eurogentec."}, "ks-vFLIP": {"system": "ks-vFLIP", "conditions": "IKKγ(150–272) at 30 μM; 30 μM ks-vFLIP unless otherwise stated, SYPRO orange; repeated at least 3 times", "description": "To achieve this, an unmodified 30-mer peptide (residues 224 to 253) was designed to encompass the interacting motif and neighboring residues along with a 21-mer (residues 226 to 248), only marginally longer than the motif itself (residues 230 to 248 [Fig. 2B]). These were commercially synthesized and their ability to associate with ks-vFLIP was assessed using a thermofluor assay (Fig. 2C and D).\nThermofluor studies were conducted using the MyIQ reverse transcription-PCR (RT-PCR) system (Bio-Rad) in a 96-well plate format. Trials were performed in which 30 μM ks-vFLIP (unless otherwise stated) was combined with either IKKγ or mimetic peptides (at the specified concentrations) prior to the addition of SYPRO orange diluted in a 1:1,000 (vol/vol) ratio and thermal denaturation. The data were subsequently processed using the Bio-Rad iQ5 software. Each experiment was repeated at least 3 times."}}}
{"molecule": "IKKγ(150–272): IKKγ fragment encompassing residues 150 to 272 (protein) LGELQESQSRLEAATKECQALEGRARAASEQARQLESEREALQQQHSVQVDQLRMQGQSVEAALRMERQAASEEKRKLAQLQVAYHQLFQEYDNHIKSSVVGSERKRGMQLEDLKQQLQQAEE", "values": [{"measurement": "apparent dissociation constant (Kd) of the vFLIP-IKKγ interaction in the presence of peptide", "setting": "GB1–ks-vFLIP; GB1–ks-vFLIP preincubated with 20 μM spIKKγ, 4% DMSO, deionized water, 25°C, at least triplicate", "result": 30, "unit": "µM"}, {"measurement": "binding affinity for ks-vFLIP, spIKKγ compared with IKKγ(150–272)", "setting": "GB1–ks-vFLIP; ITC", "result": "nearly equivalent binding affinities"}, {"measurement": "thermal denaturation response of IKKγ", "setting": "IKKγ", "result": "lack of a significant response"}, {"measurement": "shift in melting temperature of ks-vFLIP", "setting": "ks-vFLIP", "result": "~8", "unit": "°C"}]}
